The term EC50 denotes the concentration giving half of the maximal effect. High values mean a need for much substance, low ones an effect from little substance.

Assay in all cases: EC50 of free RNA motif oligo competing protein binding to immobilised probe
One data set has as its target T1, CHERP (UniProt Q8IWX8).
T1 sequence: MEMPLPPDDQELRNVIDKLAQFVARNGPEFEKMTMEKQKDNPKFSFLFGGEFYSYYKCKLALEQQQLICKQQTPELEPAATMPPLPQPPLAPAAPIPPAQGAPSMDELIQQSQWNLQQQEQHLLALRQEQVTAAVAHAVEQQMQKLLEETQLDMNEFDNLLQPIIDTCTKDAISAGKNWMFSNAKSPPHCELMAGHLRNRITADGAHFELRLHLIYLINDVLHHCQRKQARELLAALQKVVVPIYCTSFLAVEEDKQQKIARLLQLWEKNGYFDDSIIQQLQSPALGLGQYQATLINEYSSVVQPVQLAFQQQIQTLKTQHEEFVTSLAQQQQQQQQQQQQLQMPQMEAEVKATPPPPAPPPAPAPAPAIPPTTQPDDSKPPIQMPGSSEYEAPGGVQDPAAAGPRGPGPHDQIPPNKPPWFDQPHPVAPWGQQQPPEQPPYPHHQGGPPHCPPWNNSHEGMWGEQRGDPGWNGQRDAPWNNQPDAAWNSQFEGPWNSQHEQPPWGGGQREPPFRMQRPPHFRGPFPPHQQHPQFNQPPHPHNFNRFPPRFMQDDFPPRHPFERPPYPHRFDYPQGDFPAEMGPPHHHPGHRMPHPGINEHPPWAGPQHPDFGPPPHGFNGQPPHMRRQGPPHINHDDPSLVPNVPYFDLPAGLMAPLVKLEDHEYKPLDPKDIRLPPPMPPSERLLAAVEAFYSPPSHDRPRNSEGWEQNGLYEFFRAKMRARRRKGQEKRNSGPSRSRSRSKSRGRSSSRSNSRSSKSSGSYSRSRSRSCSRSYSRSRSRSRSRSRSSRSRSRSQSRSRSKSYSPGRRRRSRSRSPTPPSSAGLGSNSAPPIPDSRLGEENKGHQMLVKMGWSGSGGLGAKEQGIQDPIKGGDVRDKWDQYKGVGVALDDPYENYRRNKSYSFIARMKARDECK
A digest of the protocol:
(§1)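 HEK293-FT lysate (2.5 mg protein/well) was treated with free RNA oligos (0 nM to 30 μM) for 1 h at 4°C, then with the same oligos on NHS-Sepharose beads for 30 min at 4°C. Bound proteins were quantified by label-free LC-MS/MS relative to the control. EC50 came from a four-parameter log-logistic fit, and Kd is EC50 times a protein-dependent depletion factor.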

Another data set has as its target T2, CSTF3 (UniProt Q12996).
T2 sequence: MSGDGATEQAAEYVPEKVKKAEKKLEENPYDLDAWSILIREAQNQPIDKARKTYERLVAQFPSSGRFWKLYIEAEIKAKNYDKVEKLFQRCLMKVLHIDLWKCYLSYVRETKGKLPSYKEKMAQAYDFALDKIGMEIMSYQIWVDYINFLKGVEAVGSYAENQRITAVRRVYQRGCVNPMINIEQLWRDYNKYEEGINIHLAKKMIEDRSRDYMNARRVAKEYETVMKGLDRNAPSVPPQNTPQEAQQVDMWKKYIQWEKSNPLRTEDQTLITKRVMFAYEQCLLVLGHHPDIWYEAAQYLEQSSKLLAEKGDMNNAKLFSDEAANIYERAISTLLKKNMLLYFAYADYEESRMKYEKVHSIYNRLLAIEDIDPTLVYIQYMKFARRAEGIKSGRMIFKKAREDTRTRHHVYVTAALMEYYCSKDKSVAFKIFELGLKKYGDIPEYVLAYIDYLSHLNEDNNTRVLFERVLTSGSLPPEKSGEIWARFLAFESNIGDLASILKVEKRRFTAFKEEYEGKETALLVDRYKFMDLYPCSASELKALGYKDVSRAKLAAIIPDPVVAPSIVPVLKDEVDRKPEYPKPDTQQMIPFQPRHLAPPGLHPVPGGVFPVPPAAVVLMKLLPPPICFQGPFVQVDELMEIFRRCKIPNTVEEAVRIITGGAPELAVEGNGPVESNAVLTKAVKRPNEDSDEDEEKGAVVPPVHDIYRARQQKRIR
Put shortly:
as §1

A further data set has as its target LRPPRC (UniProt P42704). Put shortly: as §1
The target of the next data set is T3, LSM2 (UniProt Q9Y333).
T3 sequence: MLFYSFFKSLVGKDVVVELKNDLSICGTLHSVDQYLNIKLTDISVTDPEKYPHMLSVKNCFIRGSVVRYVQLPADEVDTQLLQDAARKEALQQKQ
Put shortly:
as §1

Another data set addresses T4, RBMS2 (UniProt Q15434).
T4 sequence: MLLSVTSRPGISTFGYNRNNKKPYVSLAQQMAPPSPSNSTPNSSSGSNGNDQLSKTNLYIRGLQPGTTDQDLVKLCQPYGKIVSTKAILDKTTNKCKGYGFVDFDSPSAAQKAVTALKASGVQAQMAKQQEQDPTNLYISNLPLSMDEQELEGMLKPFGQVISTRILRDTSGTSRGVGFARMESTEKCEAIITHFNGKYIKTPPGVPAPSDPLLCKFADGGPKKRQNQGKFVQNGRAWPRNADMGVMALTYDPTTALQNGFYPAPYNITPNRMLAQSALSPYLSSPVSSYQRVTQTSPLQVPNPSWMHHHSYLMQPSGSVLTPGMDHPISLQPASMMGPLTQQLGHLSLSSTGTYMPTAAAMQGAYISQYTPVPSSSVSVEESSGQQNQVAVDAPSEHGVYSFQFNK
A digest of the protocol:
as §1

Another data set has as its target RPS20 (UniProt P60866). A digest of the protocol: as §1

AAUAAA: the EC50 in the data set with CHERP came out at 1050 nM; in the data set with CSTF3 it was 80.7 nM; with LRPPRC, 2880 nM; in the data set with LSM2, 314 nM; with RBMS2, 1290 nM; in the data set with RPS20 it was 3800 nM.

CUGUCCU: the EC50 with LRPPRC amounted to 2270 nM; with RPS20 it was 171 nM.

Consider UAUUUAU, for which the EC50 with CHERP came out at 35.1 nM; with CSTF3, 600 nM; with LSM2 it was 781 nM; with RBMS2, 545 nM.
